Biological target: GST-RPGR^1–15 H98Q (UniProt Q92834)
Assay: pull-down

Sequence of UniProt Q92834 (Q92834 whole entry H98Q): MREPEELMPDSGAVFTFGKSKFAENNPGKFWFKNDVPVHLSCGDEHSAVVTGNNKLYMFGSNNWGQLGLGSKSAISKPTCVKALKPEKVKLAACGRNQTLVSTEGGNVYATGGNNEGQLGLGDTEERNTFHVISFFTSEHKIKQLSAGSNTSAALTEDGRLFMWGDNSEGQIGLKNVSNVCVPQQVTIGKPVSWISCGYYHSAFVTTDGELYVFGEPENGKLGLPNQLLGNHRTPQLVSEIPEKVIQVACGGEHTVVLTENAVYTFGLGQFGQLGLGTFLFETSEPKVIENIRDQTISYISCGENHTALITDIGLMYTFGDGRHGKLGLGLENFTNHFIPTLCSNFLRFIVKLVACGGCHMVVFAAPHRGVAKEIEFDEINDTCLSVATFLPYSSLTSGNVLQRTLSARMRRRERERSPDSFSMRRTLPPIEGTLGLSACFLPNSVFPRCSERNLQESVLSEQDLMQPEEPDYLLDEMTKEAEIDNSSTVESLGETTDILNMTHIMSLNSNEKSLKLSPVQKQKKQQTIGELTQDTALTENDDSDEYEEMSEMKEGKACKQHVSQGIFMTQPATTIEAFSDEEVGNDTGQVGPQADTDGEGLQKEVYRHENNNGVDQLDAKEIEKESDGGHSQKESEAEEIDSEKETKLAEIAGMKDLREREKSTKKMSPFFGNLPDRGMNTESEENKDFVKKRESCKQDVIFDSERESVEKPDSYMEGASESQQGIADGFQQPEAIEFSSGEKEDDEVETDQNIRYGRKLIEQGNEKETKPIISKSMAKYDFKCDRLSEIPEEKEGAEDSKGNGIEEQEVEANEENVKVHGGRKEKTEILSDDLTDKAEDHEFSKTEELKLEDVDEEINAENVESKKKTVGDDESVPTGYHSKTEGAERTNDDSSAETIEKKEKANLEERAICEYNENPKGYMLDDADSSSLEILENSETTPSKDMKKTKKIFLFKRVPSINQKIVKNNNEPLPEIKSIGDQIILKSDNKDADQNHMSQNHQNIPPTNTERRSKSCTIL

- fold less association than WT-RPGR: 5 fold
Substance: ^35S-labeled RAB8A-T22N (GDP-locked form), in vitro translated (from UniProt P61006 1-207) (natural protein)
